The target of series [1] is anthrax lethal factor (LF) (Bacillus anthracis, UniProt P15917 34-809). Nature of the series: […]) immobilized in 20 mM HEPES pH 7.4, […].
Target sequence in this assay (P15917 34-809): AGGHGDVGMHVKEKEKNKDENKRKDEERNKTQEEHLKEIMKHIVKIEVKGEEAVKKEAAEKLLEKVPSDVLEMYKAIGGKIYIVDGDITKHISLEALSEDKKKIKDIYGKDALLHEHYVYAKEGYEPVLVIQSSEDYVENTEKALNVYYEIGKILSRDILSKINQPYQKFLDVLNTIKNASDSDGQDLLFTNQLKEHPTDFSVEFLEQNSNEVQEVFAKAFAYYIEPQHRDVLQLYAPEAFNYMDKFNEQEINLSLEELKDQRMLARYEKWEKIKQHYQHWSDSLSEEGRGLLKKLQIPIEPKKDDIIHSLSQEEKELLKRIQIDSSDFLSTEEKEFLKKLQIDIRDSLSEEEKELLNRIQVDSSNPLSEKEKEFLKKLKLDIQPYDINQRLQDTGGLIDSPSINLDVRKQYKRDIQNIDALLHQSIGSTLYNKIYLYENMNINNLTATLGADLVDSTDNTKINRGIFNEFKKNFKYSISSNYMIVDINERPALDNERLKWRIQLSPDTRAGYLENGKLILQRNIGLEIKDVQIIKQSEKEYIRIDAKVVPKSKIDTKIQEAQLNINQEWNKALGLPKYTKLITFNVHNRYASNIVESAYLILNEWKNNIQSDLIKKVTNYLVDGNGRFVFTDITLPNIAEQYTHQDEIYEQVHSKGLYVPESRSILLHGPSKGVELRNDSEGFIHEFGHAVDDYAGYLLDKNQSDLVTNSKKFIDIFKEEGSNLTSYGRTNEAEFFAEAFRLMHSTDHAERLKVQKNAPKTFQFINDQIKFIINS
Series [2] shares this target. Briefly: aptamer ELISA. On the technique in general: ELISA stands for enzyme-linked immunosorbent assay.
Target sequence in this assay (P15917 34-809): as above

B1: ML7 (ssDNA)
DNA: GGAGAGAGGGAGACGCGCAACCTCGACCCGT
As to B1, the binding result in series [1] was “no binding”.

B2: ML6 (ssDNA)
DNA: GGACCAGCCGCCGCGCCTTGACCGGGGGTA
Regarding B2, the binding result in series [1] is “no binding”.

B3: scramble 30-mer (ssDNA)
DNA: CGCACTGAAGTGGGATACCGCCTAAACGGA
On to B3, for which the binding result in series [2] is “no binding”.

The values are drawn from PMC5916030.
